This is an account of results in patent US8871909B2, “Antibodies inhibiting c-Met dimerization and uses thereof” (Pierre Fabre Medicament, priority 2007, dated 2014).

Holding throughout (format): cell-based
The subject of assay [1] is c-Met. Nature of the assay: BRET analysis of c-Met dimerization on c-Met transfected CHO cells. The following applies: CHO cells expressing C-Met-Rluc and C-Met-K1100A-YFP, supernatants. The source says: The technology BRET, used in the step iii) of the process, is well known by the person skill in the art and will be detailed in the following examples. More particularly, BRET (Bioluminescence Resonance Energy Transfer) is a non-radiative energy transfer occurring between a bioluminescent donor (Renilla Luciferase (Rluc)) and a fluorescent acceptor, a mutant of GFP (Green Fluorescent Protein) or YFP (Yellow fluorescent protein). In the present case EYFP (Enhanced Yellow Fluorescent Protein) was used. The efficacy of transfer depends on the orientation and the distance between the donor and the acceptor. Then, the energy transfer can occur only if the two molecules are in close proximity (1-10 nm). This property is used to generate protein-protein interaction assays. Indeed, in order to study the interaction between two partners, the first one is genetically fused to the Renilla Luciferase and the second one to the yellow mutant of the GFP. Fusion proteins are generally, but not obligatory, expressed in mammalian cells. In presence of its membrane permeable substrate (coelenterazine), Rluc emits blue light. If the GFP mutant is closer than 10 nm from the Rluc, an energy transfer can occur and an additional yellow signal can be detected. The BRET signal is measured as the ratio between the light emitted by the acceptor and the light emitted by the donor. So the BRET signal will increase as the two fusion proteins are brought into proximity or if a conformational change bring Rluc and GFP mutant closer.
Then antibodies inhibiting at least 50% cell proliferation were evaluated as supernatants by BRET analysis on c-Met transfected cells. For that purpose, CHO stable cell lines expressing C-Met-Rluc or C-Met-Rluc and C-Met-K1100A-YFP were generated. Cells were distributed in white 96 well microplates in DMEM-F12/FBS 5% culture medium one or two days before BRET experiments. Cells were first cultured at 37° C. with CO2 5% in order to allow cell attachment to the plate. Cells were then starved with 200 μl DMEM/well overnight. Immediately prior to the experiment, DMEM was removed and cells quickly washed with PBS. Cells were incubated in PBS in the presence or absence of antibodies to be tested or reference compounds, 10 min at 37° C. prior to the addition of coelenterazine with or without HGF in a final volume of 50 μl. […]
BRET ratio has been defined previously [Angers et al., Proc. Natl. Acad. Sci. USA, 2000, 97:3684-3689] as: [(emission at 530 nm)−(emission at 485 nm)×Cf]/(emission at 485 nm), where Cf corresponds to (emission at 530 nm)/(emission at 485 nm) for cells expressing Rluc fusion protein alone in the same experimental conditions. […] For the sake of readability, results are expressed in milliBRET units (mBU); mBU corresponds to the BRET ratio multiplied by 1000.
(Bioluminescence resonance energy transfer reports proximity on the nanometre scale.)

The target in assay [2] is T1, c-Met (Homo sapiens, UniProt P08581).
T1 construct: endogenous in cells; host or cells: A549
Nature of the assay: Phospho c-Met ELISA assay on A549 cells. The following applies: purified Mabs; for IC50, c-Met phosphorylation: 0.0015 to 30 μg/ml (0.01-200 nM); for agonist effect on c-Met phosphorylation, added alone / antagonist effect on c-Met phosphorylation in presence of HGF: A549, 30 μg/ml (200 nM), Example 18. The procedure:
To determine the activity of anti-c-Met antibodies on c-Met phosphorylation a phospho c-Met ELISA assay was set-up. Briefly 500 000 A549 cells were seeded in each well of 6-well plates in F12K medium+10% FCS. 16 hours before HGF addition (100 ng/ml), cells were starved and each antibody to be tested was added at a final concentration of 30 μg/ml 15 minutes before ligand stimulation. 15 minutes after HGF addition, cold lysis buffer was added, cells were scraped and cell lysates collected and centrifuged at 13 000 rpm for 10 min at 4° C. Supernatants were quantified with a BCA kit (Pierce) and stored at −20° C. For ELISA assay, a goat anti-c-Met antibody (R&D ref. AF276) was used as a capture antibody (coating overnight at 4° C.) and after a saturation step (1 h at RT) with a TBS-BSA 5% buffer, […] of protein from the different cell lysates was added to each well of the 96-well plate. After a 90 minute-incubation time at RT, plates were washed four times and an anti-phospho-c-Met antibody (Rabbit anti-pY1230-1234-1235 c-Met) was added. After an additional 1 hour incubation time and 4 washes an anti-rabbit-HRP (Biosource) was added for 1 hour at RT and then Luminol substrate was added before evaluation the luminescence with a Mithras device. […] As described in the various examples presented in this patent, this weak basal effect has no consequences on the activity of antibodies in other in vitro and in vivo tests.
In example 3, the effect of anti-c-Met Mabs on phosphorylation was assessed with dosed supernatants from each hybridoma to be evaluated. The test has been performed again with purified 11E1 and 224G11 Mabs that have been evaluated either at a final concentration of 30 μg/ml (200 nM) or at a dose range from 0.0015 to 30 μg/ml (0.01-200 nM) in order to determine the IC50 of each antibody. The protocol used is the same as the one described in example 3.
Background: In an ELISA, binding on a coated surface is turned into a signal by an enzyme label.

The subject of a further assay is A549 cells. Nature of the assay: Matrigel invasion assay with A549 cells. The following applies: A549, Mab 10 μg/ml, basal (no HGF). As to the method:
To evaluate the inhibiting effect of the anti-c-Met antibodies on the invasion process, A549 cells were plated in the upper chamber of BD BioCoat™ Matrigel™ invasion chambers (6.5 mm diameter wells with 8-μm pre size polycarbonate membranes). A459 cells were starved 24 hours before performing the invasion assay. Then 500 000 A549 cells were plated in chemotaxis buffer (DMEM medium, 0.1% BSA, 12 mM Hepes) in the upper well of each chamber, upon the Matrigel coating either with or without the antibody to be tested (final Mab concentration 10 μg/ml). After 1 hour incubation of the plates at 37° C. with 5% CO2, the lower chambers were filled with either growth medium containing 400 ng/ml of rhHGF or with growth medium alone. The chambers were incubated for 48 additional hours at 37° C. with 5% CO2. At the end of this incubation time, cells that remained on upper surface of the filter were gently removed with a cotton swab, cells that migrated to the lower surface of the filter were lysed, stained with CyQuant GR dye buffer (Invitrogen) and counted using a fluorescence reader Berthold Mithras LB940. All conditions were tested as triplicates.

The test system of another assay is HUVEC. Nature of the assay: HUVEC proliferation ([3H]thymidine). The following applies: HGF 20 ng/ml, 0.15 to 40 μg/ml. As to the method:
For proliferation experiments, 7500 HUVEC were plated in each well of a 96 well plate previously coated with laminin. Cells were grown 24 hours of EMB-2 assay medium supplemented with 0.5% FBS and heparin. Then, MAbs to be tested (0.15 to 40 μg/ml) were added for 1 h before addition of 20 ng/ml of HGF. After 24 additional hours, cells were pulsed with 0.5 μCi of [^3H] Thymidine. The magnitude of [^3H] Thymidine incorporated was quantified by liquid scintillation counting. In This experiment the 9G4 MAb is an irrelevant antibody used as an IgG1 isotype control.

T1 sequence (P08581 25-1390): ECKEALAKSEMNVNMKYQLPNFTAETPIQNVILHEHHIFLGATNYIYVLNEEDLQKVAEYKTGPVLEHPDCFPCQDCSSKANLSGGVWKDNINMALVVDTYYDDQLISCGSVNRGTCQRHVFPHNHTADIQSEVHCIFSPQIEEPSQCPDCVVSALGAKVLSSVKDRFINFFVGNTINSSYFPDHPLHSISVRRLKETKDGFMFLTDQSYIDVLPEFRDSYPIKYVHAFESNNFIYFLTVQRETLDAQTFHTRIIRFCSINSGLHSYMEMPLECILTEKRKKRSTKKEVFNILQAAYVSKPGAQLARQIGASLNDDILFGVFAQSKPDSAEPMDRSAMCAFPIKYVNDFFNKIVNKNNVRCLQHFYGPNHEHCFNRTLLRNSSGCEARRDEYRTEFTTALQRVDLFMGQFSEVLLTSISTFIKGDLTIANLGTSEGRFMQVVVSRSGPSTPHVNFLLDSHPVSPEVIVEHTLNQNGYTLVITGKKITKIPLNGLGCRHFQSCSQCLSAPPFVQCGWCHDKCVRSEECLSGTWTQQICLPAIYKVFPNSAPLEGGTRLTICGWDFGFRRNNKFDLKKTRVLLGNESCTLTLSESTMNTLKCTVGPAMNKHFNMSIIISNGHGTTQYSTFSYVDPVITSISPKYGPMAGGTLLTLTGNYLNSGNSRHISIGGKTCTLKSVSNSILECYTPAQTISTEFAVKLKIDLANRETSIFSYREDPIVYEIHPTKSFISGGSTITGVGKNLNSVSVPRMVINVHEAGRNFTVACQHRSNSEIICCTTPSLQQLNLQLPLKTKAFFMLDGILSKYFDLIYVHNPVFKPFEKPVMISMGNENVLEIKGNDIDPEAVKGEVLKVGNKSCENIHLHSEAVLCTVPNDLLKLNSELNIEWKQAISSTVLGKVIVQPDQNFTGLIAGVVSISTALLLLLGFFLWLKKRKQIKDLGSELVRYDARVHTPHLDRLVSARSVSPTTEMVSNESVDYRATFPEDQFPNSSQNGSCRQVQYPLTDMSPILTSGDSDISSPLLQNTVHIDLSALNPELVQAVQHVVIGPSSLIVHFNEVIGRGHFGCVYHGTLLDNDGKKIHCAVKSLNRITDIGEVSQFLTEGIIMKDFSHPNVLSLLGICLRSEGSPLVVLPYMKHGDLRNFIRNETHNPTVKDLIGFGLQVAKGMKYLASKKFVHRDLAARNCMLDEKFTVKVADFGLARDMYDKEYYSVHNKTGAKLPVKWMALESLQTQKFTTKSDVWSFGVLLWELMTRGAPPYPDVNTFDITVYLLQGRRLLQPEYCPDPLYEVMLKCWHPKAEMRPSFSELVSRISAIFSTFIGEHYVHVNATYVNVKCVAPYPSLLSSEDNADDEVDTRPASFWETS
Chain of c-Met (P08581 25-307 limits assumed): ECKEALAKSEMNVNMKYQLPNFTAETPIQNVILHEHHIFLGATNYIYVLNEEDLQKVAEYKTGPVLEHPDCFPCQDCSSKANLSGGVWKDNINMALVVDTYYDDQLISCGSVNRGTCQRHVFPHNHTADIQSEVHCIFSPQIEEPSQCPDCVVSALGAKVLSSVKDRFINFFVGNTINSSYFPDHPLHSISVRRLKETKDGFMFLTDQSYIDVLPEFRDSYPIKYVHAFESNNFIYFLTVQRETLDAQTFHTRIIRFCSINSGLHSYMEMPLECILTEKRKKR
Chain of c-Met (P08581 308-932 limits assumed): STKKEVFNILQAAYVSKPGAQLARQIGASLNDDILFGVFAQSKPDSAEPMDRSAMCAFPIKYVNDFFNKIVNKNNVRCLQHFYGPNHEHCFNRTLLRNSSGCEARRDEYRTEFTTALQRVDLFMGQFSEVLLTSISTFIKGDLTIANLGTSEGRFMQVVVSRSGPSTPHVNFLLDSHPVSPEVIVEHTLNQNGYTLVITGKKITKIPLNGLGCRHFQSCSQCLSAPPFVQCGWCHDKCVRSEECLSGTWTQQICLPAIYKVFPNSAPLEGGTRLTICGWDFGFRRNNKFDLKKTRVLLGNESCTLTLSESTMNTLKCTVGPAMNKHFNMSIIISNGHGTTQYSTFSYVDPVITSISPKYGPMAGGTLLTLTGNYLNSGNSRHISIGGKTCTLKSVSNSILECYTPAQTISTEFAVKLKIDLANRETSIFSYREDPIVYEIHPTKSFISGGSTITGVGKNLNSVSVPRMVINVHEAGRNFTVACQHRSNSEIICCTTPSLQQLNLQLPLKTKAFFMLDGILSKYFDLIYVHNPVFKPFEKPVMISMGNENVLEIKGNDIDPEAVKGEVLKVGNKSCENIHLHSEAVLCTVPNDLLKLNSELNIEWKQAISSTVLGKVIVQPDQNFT

B1: 224G11: murine anti-c-Met monoclonal antibody, IgG1 kappa; heavy chain SEQ ID No. 18, light chain SEQ ID No. 21 (antibody, V domains shown)
VH: EVQLQQSGPELVKPGASVKISCKTSGYIFTAYTMHWVRQSLGESLDWIGGIKPNNGLANYNQKFKGKATLTVDKSSSTAYMDLRSLTSEDSAVYYCARSEITTEFDYWGQGTALTVSS
VL: DIVLTQSPASLAVSLGQRATISCRASESVDSYANSFMHWYQQKPGQPPKLLIYRASNLESGIPARFSGSGSRTDFTLTINPVEADDVATYYCQQSKEDPLTFGSGTKLEMK
modifications: mus musculus
For B1, the inhibition of dimerization in the assay with c-Met [1] is listed as 32%. In addition, in the assay with c-Met [2], the “IC50, c-Met phosphorylation” value was “nanomolar”; the “agonist effect on c-Met phosphorylation, added alone” value is “no agonist effect”; the “antagonist effect on c-Met phosphorylation in presence of HGF” value is 75%. Further, the “agonist effect on invasion, added alone” value in the assay on A549 cells is recorded as “No agonist effect”. In the assay with HUVEC, the “inhibition of HGF-induced HUVEC proliferation” value is on record as “dramatic dose dependent inhibition”.

B2: 11E1: murine anti-c-Met monoclonal antibody, IgG1 kappa; heavy chain SEQ ID No. 62, light chain SEQ ID No. 63 (antibody, V domains shown)
VH: QVQLQQSGAELAKPGASVKMSCKASGYTFTSYWMNWVKQRPGQGLEWIGYINPTTGSTDYNQKLKDKATLTADKSSNTAYMQLSSLTSEDSAVYYCAIGGYGSWFAYWGQGTLVTVSA
VL: QIVLTQSPAIMSASPGEKVTLTCSASSSVSSTYLYWYQQKPGSSPKLWIYTTSILASGVPARFSGSGSGTSYSLTISSMETEDAASYFCHQWSSYPFTFGSGTKLDIK
modifications: mus musculus
For B2, the inhibition of dimerization with c-Met [1] came out at 69%. In the assay with c-Met [2], the “IC50, c-Met phosphorylation” value is recorded as “nanomolar”; the “agonist effect on c-Met phosphorylation, added alone” value is given as “no agonist effect”; the “antagonist effect on c-Met phosphorylation in presence of HGF” value turned out to be 87%. Further, the “agonist effect on invasion, added alone” value in the assay with A549 cells is on record as “No agonist effect”. In addition, in the assay with HUVEC, the “inhibition of HGF-induced HUVEC proliferation” value is “dramatic dose dependent inhibition”.

B3: 223C4: murine anti-c-Met monoclonal antibody, IgG1 kappa; heavy chain SEQ ID No. 20, light chain SEQ ID No. 23 (antibody, V domains shown)
VH: EVLLQQSGPELVKPGASVKIPCKASGYTFTDYNMDWVKQSHGMSLEWIGDINPNNGGTIFNQKFKGKATLTVDKSSSTAYMELRSLTSEDTAVYYCARGRYVGYYYAMDYWGQGTSVTVSS
VL: DIQMTQSPASLSVSVGETVTITCRASENIYSNLAWYQQKQGKSPQLLVYAATNLVDGVPSRFSGSGSGTQYSLKINSLQSEDFGSYYCQHFWGPPYTFGGGTKLEIK
modifications: mus musculus
In the assay on c-Met [1], B3 displayed an inhibition of dimerization of 55%. Moreover, in the assay on A549 cells, the “agonist effect on invasion, added alone” value is “No agonist effect”.
